Patent US20260167685A1, “NEW MICROPEPTIDE HMBJ AND USE THEREOF” (NANJING ANJI BIOTECHNOLOGY CO., LTD, priority 2023, published 2026)

How the values were obtained:
Assay type in all cases: cell-based
[1] = tested on: human hepatic stellate cells LX-2; assay: inhibitory effect on human liver fibrosis cell model (TGFβ1-stimulated, qPCR); conditions: LX-2 cells, 10 nmol recombinant human TGFβ1, different concentrations of synthetic micropeptide, co-incubation 24 h, qPCR (FIG. 11)
Description: (§1) Compared with the related art, this application has the following beneficial effects: • (1) This application provides a lncRNA and a nucleotide sequence thereof. Through analysis of sequencing data for multiple organ fibroses, it is discovered that the lncRNA molecule ENSG00000272654 is expressed at a low level in the organ fibroses. […] The lncRNA molecule can be used for diagnosis or auxiliary diagnosis and treatment or auxiliary treatment of organ fibrosis, or can be used in preparation of a reagent for diagnosis or auxiliary diagnosis and treatment or auxiliary treatment of organ fibrosis. • (2) This application provides a nucleotide sequence of an open reading frame of the lncRNA. The nucleotide sequence can code new micropeptide HMBJ. […] Then, the extracted total RNA is reverse-transcribed by using a reverse transcription reagent, and then mRNA expressions of gene Col1a1, TGFβ1, and CTGF in the three organ fibrosis cell models are detected by real-time fluorescence quantification PCR. […]
In this example, inhibitory effect of the micropeptide HMBJ on a human liver fibrosis cell model was detected. […] Then, the cells were resuspended in a complete medium and counted by using a cell counter. […]

[2] = tested on: human non-small cell lung cancer cells A549; assay: inhibitory effect on human pulmonary fibrosis cell model (TGFβ1-stimulated, qPCR); conditions: 10 nmol recombinant human TGFβ1, different concentrations of synthetic micropeptide, co-incubation 24 h, qPCR (FIG. 13)
Description: as §1
Human non-small cell lung cancer cells A549 were cultured in a cell incubator at 37° C. under 5% CO2 until a cell density was 80% or more. […] Then, the cells were resuspended in a complete medium and counted by using a cell counter. […]

[3] = tested on: human renal proximal tubule cells HK2; assay: inhibitory effect on human renal fibrosis cell model (TGFβ1-stimulated, qPCR); conditions: 10 nmol recombinant human TGFβ1, different concentrations of synthetic micropeptide, co-incubation 24 h, qPCR (FIG. 12)
Description: as §1
Human renal proximal tubule cells HK2 were cultured in a cell incubator at 37° C. under 5% CO2 until a cell density was 80% or more. […] Then, the cells were resuspended in a complete medium and counted by using a cell counter. […]

Measured: inhibitory effect on mRNA expressions of gene Col1a1, TGFβ1, and CTGF

B1: HMBJ: new human endogenous micropeptide of 71 amino acids (SEQ ID NO. 3) coded by lncRNA ENSG00000272654, made by solid-phase synthesis (peptide, listed as Homo sapiens)
chain: MEAKLRVLVPAETGISETHDEHETFSLSLGSHSATQMNGVTFPHVTLLSLLLRAGPLHNLFKCSQLSLAPT
significant inhibitory effect: [1] | [2] | [3]
